Measured values published in the nanobody polyreactivity screen of Harvey et al. (2022).

Test: yeast display, Sf9 membrane polyspecificity reagent, FACS + sequencing; frameworks hold sequencing errors
Summary of the method: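 Nanobodies from a synthetic yeast display library (Saccharomyces cerevisiae BJ5465), induced 36–48 hours with galactose, were stained 1 hour at 4 °C with 10% biotinylated, detergent-solubilized Sf9 membrane reagent, enriched on streptavidin microbeads, then FACS-sorted. Anti-HA (expression) and streptavidin (reagent binding) fluorescence set low and high (top ~1%) gates. Polyreactivity labels come from the gate of origin. Genes were colony-PCR amplified, MiSeq 2 × 250 sequenced and filtered by CDR length.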

| Sequence | polyreactivity (PSR sort gate) |
| --- | --- |
| QVQLVESGGGLVQAGGSLRLSCAASGSTFGYNTMGWYREAPGKERELVAAITGTGRTNYADSVKGRFTISRDNAKNTVYLQMNSLKPEDTAVYYCNARQAGTRYKYGYYGRYYWGQGTQVTVSS | high polyreactivity |
| QVQLVESGGGLVQAGGSLRLSCAASGFTFAHNAMGWYRQAPGKERELVAAITSRGGSTYYADSVKGRFTISRDNAKNTVYLQMNSLKPEDTAVYYCAARGVNRQVFNYWGQGTQVTVSS | high polyreactivity |
| QVQLVESGGGLVQAGGSLRLSCAASGNIFRRYAMGWYRQAPGKERELVAAISRGGTRTYYADSVKGRFTISRDNAKNTVYLQMNSLKPEDTAVYYCNAEVKTNYRIADYDYWGQGTQVTVSS | high polyreactivity |
| QVQLVESGGGLVQAGGSLRLSCAASGSIFEFNTMGWYRQAPGKERELVAAISSSGGRTYYADSVKGRFTISRDNAKNTVYLQMNSLKPEDTAVYYCNAVSYYGARYDYWGQGTQVTVSS | high polyreactivity |
| QVQLVESGGGLVQAGGSLRLSCAASGFTFLGNVMGWYRQAPGKERELVAAISITGSTSYADSVKGRFTISRDNAKNTVYLQMNSLKPEDTAVYYCAADGGQVDDSATRLYYWGQGTQVTVSS | high polyreactivity |
| QDQLVESGGGLVQAGGSLRLSCAASGFTIGYNVMGWYRQAPGKERELVATISWNGARTYYADSVKGRFTISRDNAKNTVYLQMNSLKPEETAVYYCAARRYYRGEYDYWGQGTQVTVSS | low polyreactivity |
| QVQLVESGGGLVQAGGSLRLSCAASGRIFRWYAMGWYRQAPGKERELVAGINYGGGRTYYADSVKGRFTISRDNAKNTVYLQMNSLNPEDTAVYYCAAGISGHYYWGQGTQVTVSS | high polyreactivity |
| QVQLVESGGGLVQAGGSLRLSCAASGSIFSGYMGWYRQAPGKDRELVATITSGGSTYADSVKGRFTISRDNAKNSVYLQMNILKPEDTAVYYCARPRPVIQYSGLHYDYWGQGTEVTVSS | low polyreactivity |
| QVQLVESGGGLVQAGGSLRLSCAASGFTFRYYVMGWYRQAPGKERELVAAISQSGGSTYYADSVKGRFTISRDNAKNTVYLQMNSLKPEDTAVYYCAARLVKYFRPYDYWGQGTQVTVSS | high polyreactivity |
| QVQLVESCGGLGQAGGSLRLSCSASGRIFGTYAKGLYRKAPGKERELLASISYSDGSTYADSVKGRFTISRDNAKNTVYLQMNSLKPEDTSVYYCAADVYYYAQSEDGYWGQGTQVTVSS | low polyreactivity |
| QVQLVESGGGLVQAGGSLRLSCAASGGIFDANAMGWYRQAPGKERELVAAISSGGITKYADSVKGRFTISRDNAKNTVYLQMNSLKPEDTAVYYCAASWYRYRFIRYDYWGQGTQVTVSS | high polyreactivity |
| QVQLVESGGGLVQAGGSLRLSCAASGMIFKYYVMGWYRKAPGKERELVDDIRCSGGITSYADSVKGRFTISRDNAKNTVYLQMNSLKPEDTAVYYCAVAHSRLRTAYTFSVQRYDYWGQGTQVTVSS | low polyreactivity |
| QVHLVESGGGLVQAGGSLRLSCAASGDTFVKYAMGWYRQAPGKERELVAAISSGGRTYYADSVKGRFTISRDNAKNTVYLQMNSLKPEDTAVYFCNAVRPYRLASYDYWGQGTQVTVSS | high polyreactivity |
| QVQLQESGGGLVQAGGSLRLSCAAIGYISYFVGMGWYRQQPGKEREFVASIADVSNTYYADSVKGRFTISRDNAKNTVYLQRNSLKPEDTAVYYCAVVDSWTYRFDYWGQGTQVTVSS | high polyreactivity |
| QVQLVESGGGLVQAVGSLRLSCAASGSTTFYAMGSYRQAPRKEWELVATISSSAGSTYYADSVKGRFTISRDNAKNTVFFQMNSLKPEDTAVFYCNAADAVSDYPDFHIYDYWGQGTQVTVSS | low polyreactivity |
| QVQLVESGGGLVQAGGSLRLRCAASGSIFKPYAMGWYRQAPGNERELVAAINRGGTSTYYADSVKGRFTISRDNAKNTVYFQMNSLKPEDTAVYYCAAPNRYSVPMYYWGQGTQVTVSS | low polyreactivity |
| QVQLVESGGGLVQAGGSLRLSCAASGGTFNANGMGWYRQAPGKERELVAAISQRAGRTYYADSVKGRFTISRDNAKNTVYLQMNSLKPEDTAVFYCAKRPTDRRFGSGYWGQGTQVTVSS | high polyreactivity |
| QVQLVESGGGLVQAGGSLRLSCAASGFTFNRNAMGWYRQAPGKERFVAAITGSGASTYYADSVKGRFTISRDNAKNTVYLQMNSLKPEDTAVYYCNAEYYAGRYRYDYWGQGTQVTVSS | high polyreactivity |
| QVQLVESGGRLVQAGGSLRLSCAASGSTFAVYAMGWYRQAPGKERELVAAINRSGDSTYYADSVKGRFTISRDNAKNTVYLQMNSLKPEDTAVYYCAVSAWTRSHALYYWGQGTQVTVSS | high polyreactivity |
| QVQLVESGGGLVQAGGSLRLSCAASGSTSPGYAMGWYRQAPGKERELVAAITFRGTRTYYSDSVKGRFTISRDNAKNTVYLQMNSQKPDDTAVYYCNVVGYGPNRGRVDYCGQGTQVTVSS | high polyreactivity |
| QVQLVESGGGLVQAGGSLRLSCAASGSIFYDNAMGWYRQAPGNERELVAAIDDSDRTNYADSVKGRFTITRDNAKNTVYLQMNSLKPEDTAVYYCARDRWKWHYGYDYWGQGTQVTVSS | low polyreactivity |
| QVHLVESGGGLVQAGGSLRLSCAASGFIFSVYAMGWYRQAPGKERELVAAINRSGSNTYYADSVKGRFTISRDNAKNTVYLQMNSLKPEDTAVYYCATLQGFWYYPPYIKTVQYGYWGQGTQVTVSS | high polyreactivity |

| Sequence | polyreactivity (PSR sort gate) |
| --- | --- |
| QVQLVESGGGIVQAGGSLRLSCAASGSIINGNAMGWDRQAPGKERELVAAITRRGGSTYYADSVKGRFTISRDNAKNTVYLQMNSLKPEDTAVYYCAAEDWLYKRPYKERIVQFYYWGQGTQVTVSS | low polyreactivity |
| QVQLVESGGGLVQAGGSLRLSCAASGTTFPKYAMGWYRQAPGKERELVAAITRGGRTYYADSVKGRFTISRDNANNTVYLQMNSLKPEDTAVYYCAVVGYARVGMYDYWGQGSQVTVSS | high polyreactivity |
| QVQLVESGGGLVQAGGSLRLSCAASGSTFYYYAMGWYRQAPGKERELVAAISWRCSSTYYADSVKGRFTISRDNAKNTVYLQMNSLKPEDTAVYYCAAGYPGRVSGYLFGTRATYYYWGQGTQVTVSS | high polyreactivity |
| QVQLVDSVGGLVQAGGSLSLSCAASGLIFASNAMGWYRQAPGKERELLATIRRGTSTNYADSVKGRFTISRDNAKNTVYLEMNSLKPEDTAVYYCAADGYTYKFDYWGQGTQVTVSS | low polyreactivity |
| QVQLVESGGGLVQAGGSLRLSCAASGFTFGYNAMGWYRQAPGKERELVAAITSGGSTNYADSVKGRFTISRDNAKNTVYLQMNSLKPEDTAVYYCAVDPVRGRDYSWMDYWGQGTQVTVSS | low polyreactivity |
| QVQLVETGGGLVQAGGSLRLSCAASGSTLTYYTMGWYRQAPGKERELVARISWSSGRTYYAVSVKGRFTISRDNAMNTVYLQMNSLKPEDTAVYYCNADRTYYRGLDYWGQGTQVTVSS | high polyreactivity |
| QVQLVESGGGLVQAGGSLRLSCAASGSTFVPYAMGWYRQAPGKERELVASISWRGGSTSYADSVKGRFTISRDNAKNTVYLQMNSLKPEDTAVYYCAKRRYWAPYDYWGQGTQVTVSS | high polyreactivity |
| QVQLVESVGGLVQAGGSLRLSCAPSGSTFYGYAMGWYRQAPGKESELVAAITWGGASTYYADSVKGRFTISRDNAKNTVYLQMNSLKPEDTAVYYCATVGWGYQPYPFGMDYWGQGTQVTVSS | low polyreactivity |
| QVQLVESGGGLVQAGGSLRLICAASGRIFHVNAMGWYRQAPGKERELVAAISTSGGRTYYADSVKGRFTISRDNAKNTVYLQMNSLKPEDTAVYYCAAVSRAPGLRYDYWGQGTQVTVSS | high polyreactivity |
| QVQLVESGGGLVQAGGSLRLSCAASGRNFVTNAMGWYRQAPGKERELVAAITRGGNTNYADSVKGRFTISRDNAKNTVYLQMNSLKPEDSAVYYCAADTSYYYVYGYFPGYYYWGQGTQVTVSS | low polyreactivity |
| QVQLVESGGGLVQAGGSLRLSCAASGLTFGFNAMGWYRQAPWKERELDAAISSGGSTYYADSVKGRFTISRDNAKNTVYLQMNSLKPEDTAVYYCAKSGGSSQYWYGYWGQGTQVTVSS | high polyreactivity |
| QVQLVDSGGGLVQAGGSLRLSCAASGFIFSAYTMGWYRQAPGKERELVAAISGSGVGTYYADSVKGRFTISRDNAKNTVYLQMNSLKPEDTAVYYCNAADYTAYYWEYYYWGQGTQVTVSS | low polyreactivity |
| QVQLVESGGGLVQAGGSLRLSCAASGSTFKYYAMGWYRPAPGKERELVAAISGRGGRTYYADSVKGRFTISRDNAKNTVYLQMNSLKPEDTAVYYCNAPFLGAHHYGYEYWGQRTQVTVSS | high polyreactivity |
| QVQLVESGGGLVQAGGSLRLSCAASGITFSKYAMGWYRQAPGKERELVAAITRSGGSTYYADSVKGRFTISRDNAKNTVYLQMNSLKPEDTAVYYCNARGYVTGGDGGYGYWGQGTQVTVSS | high polyreactivity |
| QVQLVESGGGLVQAGGSLRLSCAASGFTFSYYAMGWYRQAPGKERELVAAITTSGGRTYYADSVKGRFTISRDNAKNTVYLQMNSLKPEDPAVYYCAATYPRYYSGEFDYWGQGTQVTVSS | high polyreactivity |
| QVQLVESGGGLVQAGGSLRLSCAASGSSFPGNAMGWYRQAPGKERELVARINDGADTNYADSVKGRFTISRDNAKNTVYLQMNSLKPEDTAVYYCAKPYYDGRTHFDSWGQGTQVTVSS | low polyreactivity |
| QVQLVESGGGLVQAGGSLRLSCAASGRTFVVNAMGWYRQATGKERELVAAITRRGGITYYADSVKGRFTISRDTAKNTVYFQMNSLKPEDTAVLYCAADRSYYPDTRSTYGYNYWGQGTQVTVSS | low polyreactivity |
| QVQLVESGGGLVQAGGSLRLSCAASGFTFSRNTMGWYRPAPGKERELVAAIDSTGGSTYYADSVKGRFTISRDNAKNTVYLQMNSLKPEDTAVYYCATVLPDGRVWYEGYYWGQGTQVTVSS | low polyreactivity |
| QVQVVESGGGLVQAGCSLRLSCAASGFTFRDYAMGWYRPAPGKERELVATITLRVGSTFYADSLKGRFTISRDNAKNTVYLQKNSLKPEDTAVYYCADEDSNVVAYDYWGQGTQVTVSS | low polyreactivity |
| QVQLVESGGGLVQAGGSLRLSCAASASIISYYAKGWYRQAPGKERELVAAISGSGSRTYYADSVKGRFTISRDNAKNTVYLQMNSLKPEDTAVYYCAARSLYRGFGYWGQGTQVTVSS | high polyreactivity |
| QVQLVESGGGLVQAGGSLRLTCAASRSIFYPNAMGWYRQAPGKETELVAAISSSGGTNYADSVKGRFTISRDNAQNTVYLQMNSLKPEDTAVYYCNARDKVRYRYSLMDYWGQGTQVTVSS | low polyreactivity |
